From US10538591B2, “Anti-fibulin-3 antibodies and uses thereof” (THE BRIGHAM AND WOMEN'S HOSPITAL, INC., priority 2014, dated 2020)

B1: scFv428.2: single-chain variable fragment derived from mAb428.2, VL-(G4S)3-VH with Myc and 6xHis tags; SEQ ID NOS: 25, 26 (protein)
scFv: DDIKMTQSPSSMYASLGERVTITCKASQDIKSYLSWHQQKPWKSPKTLIYYATSLADGVPSRFSGSGSGQDYSLTISSLESDDTATYYCLQHGKSPYTFGGGTKLEIKGGGGSGGGGSGGGGSQIQLVQSGPELKKPGETVKISCKASGYSFTTYGMSWVKQAPGKGLKWMGWINTYSGVPTYADDFKGRFAFFLETSASTAYLQINNLKNEDTATYFCARWVDYWGQGTTLTVSSEQKLISEEDLNMHTGHHHHHH
B2: chimeric mouse/human mAb428.2: recombinant chimeric antibody with VL and VH of mAb428.2; light chain SEQ ID NO: 23, heavy chain SEQ ID NO: 24 (antibody)
heavy: MYRMQLLSCIALSLALVTNSEVQLVEQIQLVQSGPELKKPGETVKISCKASGYSFTTYGMSWVKQAPGKGLKWMGWINTHSGVPTYADDFKGRFAFFLETSASTAYLQINNLKNEDTATYFCARWVDYWGQGTTLTVSSGTLVTVSSASTKGPSVFPLAPSSKSTSGGTAALGCLVKDYFPEPVTVSWNSGALTSGVHTFPAVLQSSGLYSLSSVVTVPSSSLGTQTYICNVNHKPSNTKVDKKVEPKSCDKTHTCPPCPAPELLGGPSVFIFPPKPKDVLTITLTPKVTCVVVDISKDDPEVQFSWFVDDVEVHTAQTQPREEQFNSTFRSVSELPIMHQDWLNGKEFKCRVNSAAFPAPIEKTISKTKGRPKAPQVYTIPPPKEQMAKDKVSLTCMITDFFPEDITVEWQWNGQPAENYKNTQPIMDTDGSYFVYSKLNVQKSNWEAGNTFTCSVLHEGLHNHHTEKSLSHSPGK
light: MQLLSCIALSLALVTNSDIQMTQSPSSLSASVGDRVTITCRASQSVSSADIKMTQSPSSMYASLGERVTITCKASQDIKSYLSWHQQKPWKSPKTLIYYATSLADGVPSRFSGSGSGQDYSLTISSLESDDTATYYCLQHGKSPYTFGGGTKLEIKGTKVEIKRTVAAPSVFIFPPSDSQLKSGTASVVCLLNNFYPREAKVQWKVDNALQSGNSQESVTEQDSKDSTYSLSSTLTLSKADYEKHKVYACEVTHQGLSSPVTKSFNRGEC

Assays:
[1] = test system: U251MG glioma cells; assay: Temozolomide combination viability assay in U251MG cells; format: cell-based, human; details: increasing concentrations, 72 h
Method: The antibody increased the cytotoxicity of TMZ by 30% in average.
Antibodies against fibulin-3 can potentiate the effect of a chemotherapeutic drug. Glioma cells (U251MG cell line) were cultured in presence of increasing doses of temozolomide, which is the standard-of-care drug for treatment of malignant glioma. The drug was combined with antibody vehicle (PBS) or with a fixed dose of anti-Fib3/911 antibody. Viability of the cells was analyzed after 72 h, which is a time period at which temozolomide has only a modest effect on glioma cells.

[2] = target: T1, purified human fibulin-3 (Homo sapiens, UniProt Q12805); assay: Western blot and dot-blot detection of fibulin-3; format: binding; details: for detection of fibulin-3 by Western blotting: SDS-PAGE, reducing and/or non-reducing conditions
T1 construct: purchased ORIGENE
T1 sequence (Q12805 18-493): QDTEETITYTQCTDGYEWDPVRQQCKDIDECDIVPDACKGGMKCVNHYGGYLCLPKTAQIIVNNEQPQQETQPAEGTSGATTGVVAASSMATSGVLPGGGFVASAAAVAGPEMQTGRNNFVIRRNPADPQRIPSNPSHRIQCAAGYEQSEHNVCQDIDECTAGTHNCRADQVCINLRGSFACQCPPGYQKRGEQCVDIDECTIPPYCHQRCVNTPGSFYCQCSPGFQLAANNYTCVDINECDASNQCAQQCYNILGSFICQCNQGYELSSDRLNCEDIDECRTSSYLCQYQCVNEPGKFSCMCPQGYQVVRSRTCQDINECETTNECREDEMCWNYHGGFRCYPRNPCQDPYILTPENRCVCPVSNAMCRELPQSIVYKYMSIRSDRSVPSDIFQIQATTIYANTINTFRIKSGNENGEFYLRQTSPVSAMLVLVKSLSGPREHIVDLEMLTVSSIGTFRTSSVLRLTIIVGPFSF
Method: CNSI glioma cells were transfected with fibulin-3 cDNA (fib3-OE cells) or a control plasmid (control cells) and cultured for 24 h in serum-free conditions. Conditioned medium was collected and probed by Western blotting with anti-Fib3/911 (911), anti-Fib3/912 (912), or their respective preimmune sera (antibodies and sera were used at 1/5000 dilution).
Two rabbit polyclonal antibodies were commissioned against the 23-amino acid peptide sequence of fibulin-3 involved in Notch activation. The peptide was minimally modified to facilitate the formation of a disulfide bridge necessary to form a conformational, tri-dimensional epitope (FIG. 4). Antibodies against fibulin-3 (“anti-Fib3/911” and “anti-Fib3/912”) were purified by affinity chromatography, aliquoted, and prepared in phosphate-buffered saline (PBS) solution for all subsequent tests.
Purified human fibulin-3 (200 ng/lane, ORIGENE) was subjected to SDS-PAGE in reducing and non-reducing conditions and probed with affinity-purified mAb428.3C11 (0.4 to 20 μg/ml, diluted in PBS from a 2 mg/ml stock).
Concentrated, serum-free culture medium from HEK293 cells (1 mg/ml total protein) was probed with anti-human IgG secondary antibody (HRP conjugate) to detect the chains of antibody in reducing and non-reducing conditions. C) Concentrated medium from HEK293 cells (1 mg/ml total protein) was directly used to probe purified human fibulin-3 (resolved by SDS-PAGE in non-reducing conditions).

[3] = test system: U251 glioblastoma cells
Method: In FIG. 27C, U251 glioblastoma cells (5,000 cells/well) were incubated in conditioned medium from control-HEK293 or scFv-expressing HEK293 (1.5 mg/ml total protein). After 48 h cell viability was measured using the CellTiter-Glo kit to measure ATP production (PROMEGA cat #G7572).

Molecule | cytotoxic effect of TMZ alone [1] | detection of fibulin-3 by Western blotting [2] | detection of native fibulin-3 by dot-blotting ([2]; non-reduced fibulin-3 on nitrocellulose, scFv428.2 medium 1 mg/ml, mAb428.2 1 μg/ml) | cytotoxicity of culture media with scFv [3]
Cn1nnc2c(C(N)=O)ncn2c1=O [TMZ, temozolomide] | modest, dose-dependent cytoxic effect |  |  | 
B1 |  | can detect denatured fibulin in reducing and non-reducing conditions | able to detect native fibulin-3 by dot-blotting | induce cytotoxicity in glioblastoma cells
B2 |  | detects the same pattern of bands as purified mouse mAb428.2 |  | 
